Measurements published in article PMC3219723.

Columns and labels:
ASF/SF2 (Homo sapiens) = ASF/SF2 (Homo sapiens) (UniProt Q07955); conditions: cited from earlier work
[1] = molecular target: Cp183 dimer (HBV core protein, free dimer) (Hepatitis B virus) (UniProt P03147); test: SEC; 5.3 µM Cp183 dimer alone or mixed with 11.2 µM SRPKΔ in disassembly buffer, dialysed overnight against reassembly buffer (0.25 M NaCl, 10 mM DTT, 20 mM Tris-HCl pH 7.4); Superose 6; fractions by SDS-PAGE
Chain of UniProt P03147 (P03147 whole entry): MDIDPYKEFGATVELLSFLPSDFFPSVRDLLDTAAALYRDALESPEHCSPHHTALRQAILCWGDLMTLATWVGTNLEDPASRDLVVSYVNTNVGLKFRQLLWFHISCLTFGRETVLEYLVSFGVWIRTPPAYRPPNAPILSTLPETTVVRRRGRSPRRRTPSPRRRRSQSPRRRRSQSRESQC

Chain of UniProt Q07955 (Q07955 2-248): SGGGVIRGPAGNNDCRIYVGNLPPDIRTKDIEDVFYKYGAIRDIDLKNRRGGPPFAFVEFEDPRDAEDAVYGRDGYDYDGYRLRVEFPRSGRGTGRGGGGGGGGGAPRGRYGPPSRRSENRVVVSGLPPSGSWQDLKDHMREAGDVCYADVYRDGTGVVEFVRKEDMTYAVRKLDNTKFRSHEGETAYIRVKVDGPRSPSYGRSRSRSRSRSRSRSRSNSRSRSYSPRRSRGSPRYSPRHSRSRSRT

SRPK1 (from UniProt Q96SB4)
Kd (ASF/SF2 (Homo sapiens)): 50 nM

SRPK1ΔN1S1 (truncated Serine Arginine protein kinase 1) (from UniProt Q96SB4 1-655) (enzyme)
stoichiometry N (SRPKΔ per Cp183 dimer) [1]: > 1
